Laboratory results taken from patent publication US9957297B2, “Template-fixed peptidomimetics as inhibitors of FPR1” (POLYPHOR AG, priority 2011, dated 2018).
Bridges are numbered along the chain shown (N, C = ends). Primed or numbered codes have the meaning given here. [ ]: non-standard residue; d: D form. Phe(4-CF3) = N[C@@H](Cc1ccc(C(F)(F)F)cc1)C(=O)O; dPro(4S-NH2) = N[C@@H]1CN[C@@H](C(=O)O)C1; dTic = O=C(O)[C@H]1Cc2ccccc2CN1; dPip′ = not defined here

T1: Formyl-Peptide Receptor 1 (UniProt P21462 1-350, limits assumed)
T1 sequence (looked up): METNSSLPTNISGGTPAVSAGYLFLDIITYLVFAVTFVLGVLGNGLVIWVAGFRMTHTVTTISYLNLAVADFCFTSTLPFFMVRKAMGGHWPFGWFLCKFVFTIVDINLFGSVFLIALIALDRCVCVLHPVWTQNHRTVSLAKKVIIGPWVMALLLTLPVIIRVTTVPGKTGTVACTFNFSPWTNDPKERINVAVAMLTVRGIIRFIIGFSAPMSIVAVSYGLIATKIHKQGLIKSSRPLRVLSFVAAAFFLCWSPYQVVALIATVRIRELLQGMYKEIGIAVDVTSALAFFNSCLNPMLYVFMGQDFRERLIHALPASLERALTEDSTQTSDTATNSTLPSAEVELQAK

B1: cyclo(-Tyr-His-Ala-Cys-His-Gly-^DAla-Trp-Thr-Ile-Cys-Tyr-Gln-Lys-^DPro-Pro-) (peptide)
peptide: cyclo(YHACHG[dA]WTICYQK[dP]P)
modifications: disulfide 4-11
SMILES: CC[C@H](C)[C@@H]1NC(=O)[C@H]([C@@H](C)O)NC(=O)[C@H](Cc2c[nH]c3ccccc23)NC(=O)[C@@H](C)NC(=O)CNC(=O)[C@H](Cc2c[nH]cn2)NC(=O)[C@@H]2CSSC[C@H](NC1=O)C(=O)N[C@@H](Cc1ccc(O)cc1)C(=O)N[C@@H](CCC(N)=O)C(=O)N[C@@H](CCCCN)C(=O)N1CCC[C@@H]1C(=O)N1CCC[C@H]1C(=O)N[C@@H](Cc1ccc(O)cc1)C(=O)N[C@@H](Cc1c[nH]cn1)C(=O)N[C@@H](C)C(=O)N2
B2: cyclo(-Tyr-His-Ala-Cys-Trp-Gly-^DPro-Trp-Thr-Ile-Cys-Tyr-Gln-Lys-^DLys-Pro-) (peptide)
peptide: cyclo(YHACWG[dP]WTICYQK[dK]P)
modifications: disulfide 4-11
SMILES: CC[C@H](C)[C@@H]1NC(=O)[C@H]([C@@H](C)O)NC(=O)[C@H](Cc2c[nH]c3ccccc23)NC(=O)[C@H]2CCCN2C(=O)CNC(=O)[C@H](Cc2c[nH]c3ccccc23)NC(=O)[C@@H]2CSSC[C@H](NC1=O)C(=O)N[C@@H](Cc1ccc(O)cc1)C(=O)N[C@@H](CCC(N)=O)C(=O)N[C@@H](CCCCN)C(=O)N[C@H](CCCCN)C(=O)N1CCC[C@H]1C(=O)N[C@@H](Cc1ccc(O)cc1)C(=O)N[C@@H](Cc1c[nH]cn1)C(=O)N[C@@H](C)C(=O)N2
B3: cyclo(-Tyr-His-Ala-Cys-His-Gly-^DPro-Trp-Thr-Ile-Cys-Tyr-Gln-Lys-^DThr-Pro-) (peptide)
peptide: cyclo(YHACHG[dP]WTICYQK[dT]P)
modifications: disulfide 4-11
SMILES: CC[C@H](C)[C@@H]1NC(=O)[C@H]([C@@H](C)O)NC(=O)[C@H](Cc2c[nH]c3ccccc23)NC(=O)[C@H]2CCCN2C(=O)CNC(=O)[C@H](Cc2c[nH]cn2)NC(=O)[C@@H]2CSSC[C@H](NC1=O)C(=O)N[C@@H](Cc1ccc(O)cc1)C(=O)N[C@@H](CCC(N)=O)C(=O)N[C@@H](CCCCN)C(=O)N[C@H]([C@H](C)O)C(=O)N1CCC[C@H]1C(=O)N[C@@H](Cc1ccc(O)cc1)C(=O)N[C@@H](Cc1c[nH]cn1)C(=O)N[C@@H](C)C(=O)N2
B4: cyclo(-Tyr-His-Ala-Cys-Trp-Gly-^DPro-Trp-Thr-Ile-Cys-Tyr-Gln-Lys-^DAla-Pro-) (peptide)
peptide: cyclo(YHACWG[dP]WTICYQK[dA]P)
modifications: disulfide 4-11
SMILES: CC[C@H](C)[C@@H]1NC(=O)[C@H]([C@@H](C)O)NC(=O)[C@H](Cc2c[nH]c3ccccc23)NC(=O)[C@H]2CCCN2C(=O)CNC(=O)[C@H](Cc2c[nH]c3ccccc23)NC(=O)[C@@H]2CSSC[C@H](NC1=O)C(=O)N[C@@H](Cc1ccc(O)cc1)C(=O)N[C@@H](CCC(N)=O)C(=O)N[C@@H](CCCCN)C(=O)N[C@H](C)C(=O)N1CCC[C@H]1C(=O)N[C@@H](Cc1ccc(O)cc1)C(=O)N[C@@H](Cc1c[nH]cn1)C(=O)N[C@@H](C)C(=O)N2
B5: cyclo(-Tyr-His-Lys-Cys-His-Gly-^DAla-Trp-Thr-Ile-Cys-Tyr-Glu-Lys-^DPro-Glu-) (peptide)
peptide: cyclo(YHKCHG[dA]WTICYEK[dP]E)
modifications: disulfide 4-11
SMILES: CC[C@H](C)[C@@H]1NC(=O)[C@H]([C@@H](C)O)NC(=O)[C@H](Cc2c[nH]c3ccccc23)NC(=O)[C@@H](C)NC(=O)CNC(=O)[C@H](Cc2c[nH]cn2)NC(=O)[C@@H]2CSSC[C@H](NC1=O)C(=O)N[C@@H](Cc1ccc(O)cc1)C(=O)N[C@@H](CCC(=O)O)C(=O)N[C@@H](CCCCN)C(=O)N1CCC[C@@H]1C(=O)N[C@@H](CCC(=O)O)C(=O)N[C@@H](Cc1ccc(O)cc1)C(=O)N[C@@H](Cc1c[nH]cn1)C(=O)N[C@@H](CCCCN)C(=O)N2
B6: cyclo(-Tyr-His-Lys-Cys-His-Gly-^DPro-Trp-Thr-Ile-Cys-Tyr-Glu-Lys-^DAla-Pro-) (peptide)
peptide: cyclo(YHKCHG[dP]WTICYEK[dA]P)
modifications: disulfide 4-11
SMILES: CC[C@H](C)[C@@H]1NC(=O)[C@H]([C@@H](C)O)NC(=O)[C@H](Cc2c[nH]c3ccccc23)NC(=O)[C@H]2CCCN2C(=O)CNC(=O)[C@H](Cc2c[nH]cn2)NC(=O)[C@@H]2CSSC[C@H](NC1=O)C(=O)N[C@@H](Cc1ccc(O)cc1)C(=O)N[C@@H](CCC(=O)O)C(=O)N[C@@H](CCCCN)C(=O)N[C@H](C)C(=O)N1CCC[C@H]1C(=O)N[C@@H](Cc1ccc(O)cc1)C(=O)N[C@@H](Cc1c[nH]cn1)C(=O)N[C@@H](CCCCN)C(=O)N2
B7: cyclo(-Tyr-His-Lys-Cys-Trp-Gly-^DPro-Trp-Thr-Ile-Cys-Tyr-Glu-Lys-^DAla-Pro-) (peptide)
peptide: cyclo(YHKCWG[dP]WTICYEK[dA]P)
modifications: disulfide 4-11
SMILES: CC[C@H](C)[C@@H]1NC(=O)[C@H]([C@@H](C)O)NC(=O)[C@H](Cc2c[nH]c3ccccc23)NC(=O)[C@H]2CCCN2C(=O)CNC(=O)[C@H](Cc2c[nH]c3ccccc23)NC(=O)[C@@H]2CSSC[C@H](NC1=O)C(=O)N[C@@H](Cc1ccc(O)cc1)C(=O)N[C@@H](CCC(=O)O)C(=O)N[C@@H](CCCCN)C(=O)N[C@H](C)C(=O)N1CCC[C@H]1C(=O)N[C@@H](Cc1ccc(O)cc1)C(=O)N[C@@H](Cc1c[nH]cn1)C(=O)N[C@@H](CCCCN)C(=O)N2
B8: cyclo(-Tyr-His-Lys-Cys-Trp-Gly-^DPro-Trp-Thr-Ile-Cys-Tyr-Glu-Lys-^DLys-Pro-) (peptide)
peptide: cyclo(YHKCWG[dP]WTICYEK[dK]P)
modifications: disulfide 4-11
SMILES: CC[C@H](C)[C@@H]1NC(=O)[C@H]([C@@H](C)O)NC(=O)[C@H](Cc2c[nH]c3ccccc23)NC(=O)[C@H]2CCCN2C(=O)CNC(=O)[C@H](Cc2c[nH]c3ccccc23)NC(=O)[C@@H]2CSSC[C@H](NC1=O)C(=O)N[C@@H](Cc1ccc(O)cc1)C(=O)N[C@@H](CCC(=O)O)C(=O)N[C@@H](CCCCN)C(=O)N[C@H](CCCCN)C(=O)N1CCC[C@H]1C(=O)N[C@@H](Cc1ccc(O)cc1)C(=O)N[C@@H](Cc1c[nH]cn1)C(=O)N[C@@H](CCCCN)C(=O)N2
B9: cyclo(-Tyr-His-Lys-Cys-His-Gly-^DPro-Trp-Thr-Ile-Cys-Tyr-Glu-Lys-^DLys-Pro-) (peptide)
peptide: cyclo(YHKCHG[dP]WTICYEK[dK]P)
modifications: disulfide 4-11
SMILES: CC[C@H](C)[C@@H]1NC(=O)[C@H]([C@@H](C)O)NC(=O)[C@H](Cc2c[nH]c3ccccc23)NC(=O)[C@H]2CCCN2C(=O)CNC(=O)[C@H](Cc2c[nH]cn2)NC(=O)[C@@H]2CSSC[C@H](NC1=O)C(=O)N[C@@H](Cc1ccc(O)cc1)C(=O)N[C@@H](CCC(=O)O)C(=O)N[C@@H](CCCCN)C(=O)N[C@H](CCCCN)C(=O)N1CCC[C@H]1C(=O)N[C@@H](Cc1ccc(O)cc1)C(=O)N[C@@H](Cc1c[nH]cn1)C(=O)N[C@@H](CCCCN)C(=O)N2
B10: cyclo(-Tyr-His-Lys-Cys-His-Gly-^DPro-Trp-Thr-Ile-Cys-Tyr-Glu-Lys-^DTic-Pro-) (peptide)
peptide: cyclo(YHKCHG[dP]WTICYEK[dTic]P)
modifications: disulfide 4-11
SMILES: CC[C@H](C)[C@@H]1NC(=O)[C@H]([C@@H](C)O)NC(=O)[C@H](Cc2c[nH]c3ccccc23)NC(=O)[C@H]2CCCN2C(=O)CNC(=O)[C@H](Cc2c[nH]cn2)NC(=O)[C@@H]2CSSC[C@H](NC1=O)C(=O)N[C@@H](Cc1ccc(O)cc1)C(=O)N[C@@H](CCC(=O)O)C(=O)N[C@@H](CCCCN)C(=O)N1Cc3ccccc3C[C@@H]1C(=O)N1CCC[C@H]1C(=O)N[C@@H](Cc1ccc(O)cc1)C(=O)N[C@@H](Cc1c[nH]cn1)C(=O)N[C@@H](CCCCN)C(=O)N2
B11: cyclo(-Tyr-His-Lys-Cys-His-Gly-^DPro-Trp-Thr-Ile-Cys-Tyr-Glu-Lys-^DPro((4S)OH)-Pro-) (peptide)
peptide: cyclo(YHKCHG[dP]WTICYEK[dPro((4S)OH)]P)
modifications: disulfide 4-11
B12: cyclo(-Tyr-His-Lys-Cys-His-Gly-^DPro-Trp-Thr-Ile-Cys-Tyr-Glu-Lys-^DPro((4S)NH2)-Pro-) (peptide)
peptide: cyclo(YHKCHG[dP]WTICYEK[dPro(4S-NH2)]P)
modifications: disulfide 4-11
B13: cyclo(-Tyr-His-Lys-Cys-His-Gly-^DPro-Trp-Thr-Ile-Cys-Tyr-Glu-Lys-^DPip-Pro-) (peptide)
peptide: cyclo(YHKCHG[dP]WTICYEK[dPip′]P)
modifications: disulfide 4-11
B14: cyclo(-Tyr-His-Lys-Cys-Tyr-Gly-^DPro-Trp-Thr-Ile-Cys-Tyr-Glu-Lys-^DPro-Pro-) (peptide)
peptide: cyclo(YHKCYG[dP]WTICYEK[dP]P)
modifications: disulfide 4-11
SMILES: CC[C@H](C)[C@@H]1NC(=O)[C@H]([C@@H](C)O)NC(=O)[C@H](Cc2c[nH]c3ccccc23)NC(=O)[C@H]2CCCN2C(=O)CNC(=O)[C@H](Cc2ccc(O)cc2)NC(=O)[C@@H]2CSSC[C@H](NC1=O)C(=O)N[C@@H](Cc1ccc(O)cc1)C(=O)N[C@@H](CCC(=O)O)C(=O)N[C@@H](CCCCN)C(=O)N1CCC[C@@H]1C(=O)N1CCC[C@H]1C(=O)N[C@@H](Cc1ccc(O)cc1)C(=O)N[C@@H](Cc1c[nH]cn1)C(=O)N[C@@H](CCCCN)C(=O)N2
B15: cyclo(-Tyr-His-Lys-Cys-His-Gly-^DPro-Trp-Thr-Ile-Cys-Tyr-Glu-Lys-^DLys-Glu-) (peptide)
peptide: cyclo(YHKCHG[dP]WTICYEK[dK]E)
modifications: disulfide 4-11
SMILES: CC[C@H](C)[C@@H]1NC(=O)[C@H]([C@@H](C)O)NC(=O)[C@H](Cc2c[nH]c3ccccc23)NC(=O)[C@H]2CCCN2C(=O)CNC(=O)[C@H](Cc2c[nH]cn2)NC(=O)[C@@H]2CSSC[C@H](NC1=O)C(=O)N[C@@H](Cc1ccc(O)cc1)C(=O)N[C@@H](CCC(=O)O)C(=O)N[C@@H](CCCCN)C(=O)N[C@H](CCCCN)C(=O)N[C@@H](CCC(=O)O)C(=O)N[C@@H](Cc1ccc(O)cc1)C(=O)N[C@@H](Cc1c[nH]cn1)C(=O)N[C@@H](CCCCN)C(=O)N2
B16: cyclo(-Tyr-His-Lys-Cys-Phe(4CF3)-Gly-^DPro-Trp-Thr-Ile-Cys-Tyr-Glu-Lys-^DPro-Pro-) (peptide)
peptide: cyclo(YHKC[Phe(4-CF3)]G[dP]WTICYEK[dP]P)
modifications: disulfide 4-11
SMILES: CC[C@H](C)[C@@H]1NC(=O)[C@H]([C@@H](C)O)NC(=O)[C@H](Cc2c[nH]c3ccccc23)NC(=O)[C@H]2CCCN2C(=O)CNC(=O)[C@H](Cc2ccc(C(F)(F)F)cc2)NC(=O)[C@@H]2CSSC[C@H](NC1=O)C(=O)N[C@@H](Cc1ccc(O)cc1)C(=O)N[C@@H](CCC(=O)O)C(=O)N[C@@H](CCCCN)C(=O)N1CCC[C@@H]1C(=O)N1CCC[C@H]1C(=O)N[C@@H](Cc1ccc(O)cc1)C(=O)N[C@@H](Cc1c[nH]cn1)C(=O)N[C@@H](CCCCN)C(=O)N2

Biological target: T1, Formyl-Peptide Receptor 1
Test: cell-based or functional assay

| Binder | β-Arrestin IC50 [nM] |
| --- | --- |
| B1 | 458 |
| B2 | 195 |
| B3 | 641 |
| B4 | 133 |
| B5 | 77 |
| B6 | 65 |
| B7 | 126 |
| B8 | 126 |
| B9 | 385 |
| B10 | 56 |
| B11 | 39 |
| B12 | 41 |
| B13 | 29 |
| B14 | 22 |
| B15 | 124 |
| B16 | 172 |
